Data as given in PMC9304885.

Molecular target: recombinant M. hyopneumoniae mhp390 (rMhp390) (Mycoplasma hyopneumoniae)
Experiment: BLI; ForteBio Octet Red96; biotinylated rMhp390 immobilised on streptavidin (SA) biosensors, rNOD1 in solution; PBST (PBS, 0.02% Tween20); association 300 s, dissociation 600 s; 1:1 binding model

Q: For “recombinant NOD1 (rNOD1), nucleotide-binding oligomerization domain 1 (receptor)”, which Kd is on record?
A: 8.14 µM
